Test results as given in US20100168020A1 (Amgen, published 2010).
Where a chain is given by its changes, count along the chain named. Numbers in names are those of the source. Blank lines part the entries; values can stand above or below the binder they belong to.

Assays:
[1] = molecular target: GDF-11 (Homo sapiens (Human)) (UniProt O95390); assay: cell-based or functional assay
[2] = molecular target: T1, myostatin (human, UniProt O14793 267-375); assay: cell-based or functional assay
T1 sequence: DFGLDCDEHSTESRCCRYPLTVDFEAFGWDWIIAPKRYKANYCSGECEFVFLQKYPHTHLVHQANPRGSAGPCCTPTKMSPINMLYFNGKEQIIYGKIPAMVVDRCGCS

[3] = molecular target: T2, activin A (Homo sapiens (Human), UniProt P08476 311-426); assay: cell-based or functional assay
T2 sequence: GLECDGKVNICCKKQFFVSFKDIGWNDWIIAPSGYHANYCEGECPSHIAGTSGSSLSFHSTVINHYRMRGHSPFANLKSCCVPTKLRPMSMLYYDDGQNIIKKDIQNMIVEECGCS

[4] = molecular target: GDF-11 (Homo sapiens (Human)) (UniProt O95390); assay: KinExA solution equilibrium, ligand-coated beads, Cy5 anti-human Fc detection
[5] = molecular target: T1, myostatin; assay: as above
Procedure: (§1) Solution-based equilibrium-binding assays using KinExA™ technology (Sapidyne Instruments, Inc.) were used to determine the dissociation equilibrium (KD) of ligand binding to ActRIIB-Fc polypeptides. UltraLink Biosupport beads (Pierce) was pre-coated with about 100 μg/ml each of myostatin, GDF-11, and activin A overnight, and then blocked with BSA. 1 pM and 3 pM of ActRIIB-Fc (E28W) (SEQ ID NO: 21) and svActRIIB-Fc (E28W, S44T) (SEQ ID NO: 10) samples were incubated with various concentrations (0.7 fM to 160 pM) of myostatin, activin A, and GDF-11 respectively in sample buffer at room temperature for 8 hours before being run through the ligand-coated beads. The amount of the bead-bound soluble receptor was quantified by fluorescent (Cy5) labeled goat anti-human-Fc antibody at 1 mg/ml in superblock. The binding signal is proportional to the concentration of free soluble receptor at equilibrium with a given myostatin, activin A, or GDF-11 concentration. KD was obtained from the nonlinear regression of the competition curves using a dual-curve one-site homogeneous binding model provided in the KinEx A™ software (Sapidyne Instruments, Inc.).

[6] = molecular target: T2, activin A; assay: as above
Procedure: as §1

IC50, luciferase activity of C2C12/pMARE-luc reporter cells at 4 nM ligand [1]: 2.4 nM
IC50, luciferase activity of C2C12/pMARE-luc reporter cells at 4 nM ligand [2]: 0.95 nM
IC50, luciferase activity of C2C12/pMARE-luc reporter cells at 4 nM ligand [3]: 3.2 nM
Kd [4]: 0.1 pM
Kd [5]: 0.1 pM
Kd [6]: 0.2 pM
B1: ActRIIB-Fc (E28W) (Fc fusion)
chain: ETRWCIYYNANWELERTNQSGLERCEGEQDKRLHCYASWRNSSGTIELVKKGCWLDDFNCYDRQECVATEENPQVYFCCCEGNFCNERFTHLPEAGGPEVTYEPPPTAPTGGGGSVECPPCPAPPVAGPSVFLFPPKPKDTLMISRTPEVTCVVVDVSHEDPEVQFNWYVDGVEVHNAKTKPREEQFNSTFRVVSVLTVVHQDWLNGKEYKCKVSNKGLPAPIEKTISKTKGQPREPQVYTLPPSREEMTKNQVSLTCLVKGFYPSDIAVEWESNGQPENNYKTTPPMLDSDGSFFLYSKLTVDKSRWQQGNVFSCSVMHEALHNHYTQKSLSLSPGK
notes: also called ActRIIB-IgG2Fc (E28W); ActRIIB-IgG Fc (E28W)

IC50, luciferase activity of C2C12/pMARE-luc reporter cells at 4 nM ligand [1]: 2.4 nM
IC50, luciferase activity of C2C12/pMARE-luc reporter cells at 4 nM ligand [2]: 1.07 nM
IC50, luciferase activity of C2C12/pMARE-luc reporter cells at 4 nM ligand [3]: 3.6 nM
Kd [4]: 0.1 pM
Kd [5]: 0.1 pM
Kd [6]: 0.1 pM
B2: svActRIIB-Fc (E28W, S44T) (Fc fusion)
chain: B1 chain with S20T
notes: Made in 293-6E or CHO cells; also called svActRIIB-IgG2Fc (E28W, S44T); svActRIIB-IgG Fc (E28W, S44T)
